Legend:
Test in all cases: EMSA
C/EBPα p30 = C/EBPα p30 (UniProt P49715-3 1-239)
C/EBPα p42 (full length) = C/EBPα p42 (full length) (UniProt P49715 1-358)
C/EBPα bZIP domain = C/EBPα bZIP domain (UniProt P49715 282-345)
C/EBPα bZIP domain, sequence (P49715 282-345): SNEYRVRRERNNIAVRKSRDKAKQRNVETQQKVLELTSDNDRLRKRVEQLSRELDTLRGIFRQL

C/EBPα p42 (full length), sequence (P49715 whole entry, the tested form may be a part): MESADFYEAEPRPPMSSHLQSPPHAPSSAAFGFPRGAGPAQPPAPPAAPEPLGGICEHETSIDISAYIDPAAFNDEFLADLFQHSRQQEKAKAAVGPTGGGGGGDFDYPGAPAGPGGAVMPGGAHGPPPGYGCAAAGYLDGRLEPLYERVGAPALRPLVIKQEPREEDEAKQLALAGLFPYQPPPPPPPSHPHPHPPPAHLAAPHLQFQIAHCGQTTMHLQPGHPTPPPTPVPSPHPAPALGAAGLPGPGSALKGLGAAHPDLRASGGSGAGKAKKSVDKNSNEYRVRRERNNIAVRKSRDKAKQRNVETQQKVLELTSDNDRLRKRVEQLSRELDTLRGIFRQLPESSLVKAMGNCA
C/EBPα p30, sequence (P49715 120-358): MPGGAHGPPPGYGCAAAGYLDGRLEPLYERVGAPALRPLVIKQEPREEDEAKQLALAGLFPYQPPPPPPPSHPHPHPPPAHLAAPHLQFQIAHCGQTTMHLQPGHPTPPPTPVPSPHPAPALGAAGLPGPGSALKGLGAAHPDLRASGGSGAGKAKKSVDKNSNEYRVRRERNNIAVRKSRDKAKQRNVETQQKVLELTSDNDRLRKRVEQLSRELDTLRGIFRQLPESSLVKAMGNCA

Binder | binding result (C/EBPα p30) | binding result (C/EBPα p42 (full length)) | binding result (C/EBPα bZIP domain)
GGGACCCGGUUCCCACUCACCCAGC (structured_RNA) [CTBP1 intron 2 negative RNA (CTBP1i2N)] | no binding | no binding | –
CCCCCACCCAGCCAGGCCAAC (ssRNA) [PU.1 intron 4 RNA (PU.1i4)] | binds | binds | no binding
UUCCCACUCACCCAGCACCC (ssRNA) [CTBP1 intron 2 RNA (CTBP1i2)] | binds | binds | no binding

From publication doi:10.1101/2021.10.20.465166
